Square brackets hold non-standard residues; d marks the D form. Side chains are listed from the residue outwards. Ends that are not written are not given here. mPEG 40 kDa (SVA) = 40 kDa methoxy poly(ethylene glycol) succinimidyl valerate (mPEG-SVA); triazole linker = not defined here; Fs = not defined here
T1: murine P-selectin-Fc chimera (murine, UniProt Q01102 42-709)
T1 construct: Bought from R&D Systems; also called mouse P-selectin chimera; species-specific P-selectin-Fc chimera; not shown: Fc part
T1 sequence (looked up): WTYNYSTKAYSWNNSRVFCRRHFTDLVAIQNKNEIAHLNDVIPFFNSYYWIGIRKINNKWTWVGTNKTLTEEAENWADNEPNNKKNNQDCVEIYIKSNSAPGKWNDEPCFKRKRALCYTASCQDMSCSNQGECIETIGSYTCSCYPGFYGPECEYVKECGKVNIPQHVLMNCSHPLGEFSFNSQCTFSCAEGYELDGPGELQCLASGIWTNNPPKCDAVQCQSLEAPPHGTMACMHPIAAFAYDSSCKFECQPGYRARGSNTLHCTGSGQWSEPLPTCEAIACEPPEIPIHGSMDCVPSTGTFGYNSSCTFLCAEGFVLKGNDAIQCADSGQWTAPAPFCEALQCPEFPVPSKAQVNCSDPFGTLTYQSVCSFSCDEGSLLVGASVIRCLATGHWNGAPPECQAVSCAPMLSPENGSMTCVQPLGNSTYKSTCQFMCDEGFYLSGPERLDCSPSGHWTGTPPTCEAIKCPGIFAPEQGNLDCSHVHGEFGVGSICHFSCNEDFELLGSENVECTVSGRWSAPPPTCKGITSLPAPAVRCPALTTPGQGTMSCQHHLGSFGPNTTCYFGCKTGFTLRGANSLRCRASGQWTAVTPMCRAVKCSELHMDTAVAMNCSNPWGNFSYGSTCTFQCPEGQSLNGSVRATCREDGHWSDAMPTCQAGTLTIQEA


Key:
[1] = target: T2, human P-selectin-Ig chimera (human, UniProt P16109 42-771); assay: flow cytometry competition: inhibition of human P-selectin-Fc chimera (3 µg/mL) binding to human monocytes
T2 construct: No source is stated for the chimera used on the microarray and in SPR; also called P-Sel-Ig; P-sel-Ig

[2] = target: T2, human P-selectin-Ig chimera; assay: flow cytometry competition: inhibition of human P-selectin-Fc chimera (3 µg/mL) binding to human neutrophils
[3] = target: T1, murine P-selectin-Fc chimera; assay: flow cytometry competition: inhibition of murine P-selectin-Fc chimera (3 µg/mL) binding to murine monocytes
[4] = target: T1, murine P-selectin-Fc chimera; assay: flow cytometry competition: inhibition of murine P-selectin-Fc chimera (3 µg/mL) binding to murine neutrophils
[5] = target: T2, human P-selectin-Ig chimera; assay: SPR (Biacore): biotinylated ligand on streptavidin chip, P-selectin-Ig flowed at 0.4-100 nM
[6] = target: T2, human P-selectin-Ig chimera; assay: SPR (Biacore): biotinylated G4 on streptavidin chip, P-sel-Ig flowed at 0.4-100 nM, 1:1 model

T2 sequence (P16109 42-771, change not shown): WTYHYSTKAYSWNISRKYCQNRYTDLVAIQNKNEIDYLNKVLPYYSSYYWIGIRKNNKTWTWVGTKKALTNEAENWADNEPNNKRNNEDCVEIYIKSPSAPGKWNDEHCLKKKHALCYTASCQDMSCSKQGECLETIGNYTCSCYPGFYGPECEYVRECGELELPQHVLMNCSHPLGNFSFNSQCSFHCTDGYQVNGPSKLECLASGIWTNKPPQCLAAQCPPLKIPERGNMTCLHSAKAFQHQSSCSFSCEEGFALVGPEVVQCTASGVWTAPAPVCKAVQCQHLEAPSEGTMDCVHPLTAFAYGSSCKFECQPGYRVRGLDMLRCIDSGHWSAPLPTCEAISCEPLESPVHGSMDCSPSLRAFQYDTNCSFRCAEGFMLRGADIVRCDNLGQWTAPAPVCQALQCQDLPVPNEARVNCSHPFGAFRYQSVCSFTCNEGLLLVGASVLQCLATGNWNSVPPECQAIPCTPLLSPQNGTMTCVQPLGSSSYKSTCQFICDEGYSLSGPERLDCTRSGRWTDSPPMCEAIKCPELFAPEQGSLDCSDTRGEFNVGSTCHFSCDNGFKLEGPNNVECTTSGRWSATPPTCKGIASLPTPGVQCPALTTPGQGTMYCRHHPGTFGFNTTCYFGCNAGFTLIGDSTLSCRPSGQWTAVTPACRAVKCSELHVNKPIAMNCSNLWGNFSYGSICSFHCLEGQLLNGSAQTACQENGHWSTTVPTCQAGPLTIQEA

IC50 [1]	IC50 [2]	IC50 [3]	IC50 [4]	Kd [5]	Kd [6]	Binder
12 µM	9 µM	6 µM	9 µM	–	–	{mPEG 40 kDa (SVA)}-KE[Fs]E[Fs]LD[Fs]DFLPET([triazole linker-sLe^x])EPL (reading uncertain, also called PEG-G4; pegylated click compound) [PEG40-G4 (P-G4)]
16 µM	13 µM	10 µM	–	0.05 µM	0.069 µM	KEFEFLDFDFLPETEPL (not fully specified (residues 3, 5, 8, 14); also: biotinylated for SPR, place not given here, Synthetic glycosulfonopeptide analogue of the N-terminus of PSGL-1; also called compound 1) [G4]
